According to patent US20250011428A1 (Novartis, published 2025):
Substitutions are numbered along the chain they refer to.

B1: CD3_WT (antibody, human IgG1, lambda)
heavy: not shown
light: QAVVTQEPSLTVSPGGTVTLTCRSSTGAVTTSNYANWVQQKPGQAPRGLIGGTNKRAPWTPARFSGSLLGDKAALTLSGAQPEDEAEYFCALWYSNLWVFGGGTKLTVLGQPKAAPSVTLFPPSSEELQANKATLVCLISDFYPGAVTVAWKADSSPVKAGVETTTPSKQSNNKYAASSYLSLTPEQWKSHRSYSCQVTHEGSTVEKTVAPTECS
notes: hIgG1, no Fc mutation; produced in HEK-293T-17SF; also called parental anti-CD3 IgG1; anti-CD3 monospecific hIgG1
B2: CD3_2_YTE (antibody, human IgG1, lambda)
heavy: EVQLVESGGGLVQPGGSLKLSCAASGFTFNTYAMNWVRQASGKGLEWVGRIRSKYNNYATYYADSVKDRFTISRDDSKSTLYLQMNSLKTEDTAVYYCVRHGNFGNSYVSWFAYWGQGTLVTVSSASTKGPSVFPLAPSSKSTSGGTAALGCLVKDYFPEPVTVSWNSGALTSGVHTFPAVLQSSGLYSLSSVVTVPSSSLGTQTYICNVNHKPSNTKVDKRVEPKSCDKTHTCPPCPAPELCCHPSVFLFPPKPKDTLYITREPEVTCVVVGLRHEDPEVKFNWYVDGVEVHNAKTKPREEQYCGCYRVVSVLTVLHQDWLNGKEYKCKVSNKALPAPIEKTISKAKGQPREPQVYTLPPSRDELTKNQVSLTCLVKGFYPSDIAVEWESNGQPENNYKTTPPVLDSDGSFFLYSKLTVDKSRWQQGNVFSCSVMHEALHNHYTQKSLSLSPGK
light: B1 light
notes: hIgG1
B3: CD3_6 (antibody, human IgG1, lambda)
heavy: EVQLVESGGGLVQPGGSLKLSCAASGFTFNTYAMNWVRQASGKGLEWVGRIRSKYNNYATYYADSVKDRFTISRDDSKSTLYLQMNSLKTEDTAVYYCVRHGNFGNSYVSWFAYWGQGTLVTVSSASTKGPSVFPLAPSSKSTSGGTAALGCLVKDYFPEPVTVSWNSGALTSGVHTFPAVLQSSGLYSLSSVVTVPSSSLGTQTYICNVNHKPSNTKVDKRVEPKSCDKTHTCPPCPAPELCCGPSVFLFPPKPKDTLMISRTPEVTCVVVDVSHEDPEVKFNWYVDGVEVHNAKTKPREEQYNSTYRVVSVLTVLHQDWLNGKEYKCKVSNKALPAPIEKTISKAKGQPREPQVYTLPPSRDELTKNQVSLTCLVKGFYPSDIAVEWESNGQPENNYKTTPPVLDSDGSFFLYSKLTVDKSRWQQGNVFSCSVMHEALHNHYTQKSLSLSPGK
light: B1 light
notes: hIgG1
B4: CD3_7 (antibody, human IgG1, lambda)
heavy: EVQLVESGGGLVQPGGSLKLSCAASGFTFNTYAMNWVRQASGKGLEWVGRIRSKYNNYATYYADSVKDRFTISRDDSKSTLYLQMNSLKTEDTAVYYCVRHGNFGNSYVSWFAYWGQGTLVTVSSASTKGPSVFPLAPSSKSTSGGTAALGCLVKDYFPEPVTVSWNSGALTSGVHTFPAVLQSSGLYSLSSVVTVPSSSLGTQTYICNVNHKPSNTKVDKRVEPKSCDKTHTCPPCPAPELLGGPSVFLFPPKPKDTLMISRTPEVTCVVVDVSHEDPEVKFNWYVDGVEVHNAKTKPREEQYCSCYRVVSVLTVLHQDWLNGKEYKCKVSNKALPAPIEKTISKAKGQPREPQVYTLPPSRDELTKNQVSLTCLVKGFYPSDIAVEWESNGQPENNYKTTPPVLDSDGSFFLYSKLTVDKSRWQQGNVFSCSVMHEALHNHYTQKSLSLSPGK
light: B1 light
notes: hIgG1
B5: CD3_8_YTE (antibody, human IgG1, lambda)
heavy: B2 heavy with C243L, H245G, G273D, L274V, R275S, C305N, G306S, C307T
light: B1 light
notes: hIgG1
B6: CD3_9 (antibody, human IgG1, lambda)
heavy: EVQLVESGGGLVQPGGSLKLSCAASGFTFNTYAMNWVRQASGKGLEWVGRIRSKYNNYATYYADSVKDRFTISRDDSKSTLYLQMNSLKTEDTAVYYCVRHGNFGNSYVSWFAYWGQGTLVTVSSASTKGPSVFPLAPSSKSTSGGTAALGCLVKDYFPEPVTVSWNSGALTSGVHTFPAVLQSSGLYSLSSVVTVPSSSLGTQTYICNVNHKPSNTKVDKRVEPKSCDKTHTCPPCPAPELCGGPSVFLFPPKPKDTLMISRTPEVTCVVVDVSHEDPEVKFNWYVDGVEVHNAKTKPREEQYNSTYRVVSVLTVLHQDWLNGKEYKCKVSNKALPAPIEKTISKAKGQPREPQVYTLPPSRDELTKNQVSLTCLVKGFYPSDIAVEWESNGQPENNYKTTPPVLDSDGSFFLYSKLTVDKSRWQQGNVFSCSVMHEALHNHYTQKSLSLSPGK
light: B1 light
notes: hIgG1
B7: CD3_9_YTE (antibody, human IgG1, lambda)
heavy: B2 heavy with C244G, H245G, G273D, L274V, R275S, C305N, G306S, C307T
light: B1 light
notes: hIgG1
B8: CD3_10 (antibody, human IgG1, lambda)
heavy: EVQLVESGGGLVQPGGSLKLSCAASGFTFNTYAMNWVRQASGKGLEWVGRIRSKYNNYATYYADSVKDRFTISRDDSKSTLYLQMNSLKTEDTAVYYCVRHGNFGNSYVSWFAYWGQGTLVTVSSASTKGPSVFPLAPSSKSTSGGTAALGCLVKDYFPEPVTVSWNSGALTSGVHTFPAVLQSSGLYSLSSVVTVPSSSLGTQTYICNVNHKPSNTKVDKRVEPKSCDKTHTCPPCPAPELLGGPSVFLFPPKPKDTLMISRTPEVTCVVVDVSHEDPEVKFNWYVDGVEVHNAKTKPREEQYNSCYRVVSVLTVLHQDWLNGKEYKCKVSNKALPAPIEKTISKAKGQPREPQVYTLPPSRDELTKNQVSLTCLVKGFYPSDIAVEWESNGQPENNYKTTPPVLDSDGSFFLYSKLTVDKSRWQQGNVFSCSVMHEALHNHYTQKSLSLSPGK
light: B1 light
notes: hIgG1
B9: CD3_10_YTE (antibody, human IgG1, lambda)
heavy: B2 heavy with C243L, C244G, H245G, G273D, L274V, R275S, C305N, G306S
light: B1 light
notes: hIgG1
B10: CD3_11 (antibody, human IgG1, lambda)
heavy: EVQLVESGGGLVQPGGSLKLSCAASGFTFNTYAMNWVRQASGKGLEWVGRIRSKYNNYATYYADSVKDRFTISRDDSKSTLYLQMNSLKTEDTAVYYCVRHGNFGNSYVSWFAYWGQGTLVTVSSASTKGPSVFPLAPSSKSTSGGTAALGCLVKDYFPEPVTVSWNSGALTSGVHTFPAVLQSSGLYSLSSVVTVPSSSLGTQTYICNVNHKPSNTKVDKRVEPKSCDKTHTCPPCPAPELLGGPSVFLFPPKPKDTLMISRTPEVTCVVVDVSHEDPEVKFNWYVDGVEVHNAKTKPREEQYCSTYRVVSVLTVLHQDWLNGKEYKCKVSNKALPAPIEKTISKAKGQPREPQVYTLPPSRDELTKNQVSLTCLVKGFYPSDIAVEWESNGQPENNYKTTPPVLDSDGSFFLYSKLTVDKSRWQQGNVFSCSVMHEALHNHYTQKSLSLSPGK
light: B1 light
notes: hIgG1
B11: CD3_11_YTE (antibody, human IgG1, lambda)
heavy: B2 heavy with C243L, C244G, H245G, G273D, L274V, R275S, G306S, C307T
light: B1 light
notes: hIgG1
B12: CD3_DANAPA (antibody, human IgG1, lambda, N297A)
heavy: EVQLVESGGGLVQPGGSLKLSCAASGFTFNTYAMNWVRQASGKGLEWVGRIRSKYNNYATYYADSVKDRFTISRDDSKSTLYLQMNSLKTEDTAVYYCVRHGNFGNSYVSWFAYWGQGTLVTVSSASTKGPSVFPLAPSSKSTSGGTAALGCLVKDYFPEPVTVSWNSGALTSGVHTFPAVLQSSGLYSLSSVVTVPSSSLGTQTYICNVNHKPSNTKVDKRVEPKSCDKTHTCPPCPAPELLGGPSVFLFPPKPKDTLMISRTPEVTCVVVAVSHEDPEVKFNWYVDGVEVHNAKTKPREEQYASTYRVVSVLTVLHQDWLNGKEYKCKVSNKALAAPIEKTISKAKGQPREPQVYTLPPSRDELTKNQVSLTCLVKGFYPSDIAVEWESNGQPENNYKTTPPVLDSDGSFFLYSKLTVDKSRWQQGNVFSCSVMHEALHNHYTQKSLSLSPGK
light: B1 light
notes: hIgG1; silencing benchmark
B13: CD3_1 (antibody, human IgG1, lambda)
heavy: B2 heavy with S247R, Y260M, T262S, E264T, V272T, H276D, R309S
light: B1 light
notes: hIgG1
B14: CD3_5 (antibody, human IgG1, lambda)
heavy: B12 heavy with L243C, G244C, A273D, A305C, T307C, A337P
light: B1 light
notes: hIgG1

Biological target: T1, recombinant human hFcRn (human, UniProt P55899 24-297; P61769 21-119)
T1 construct: FcRn is normally a heterodimer with it
T1 sequence (P55899 24-297 limits assumed, chain 1 of 2): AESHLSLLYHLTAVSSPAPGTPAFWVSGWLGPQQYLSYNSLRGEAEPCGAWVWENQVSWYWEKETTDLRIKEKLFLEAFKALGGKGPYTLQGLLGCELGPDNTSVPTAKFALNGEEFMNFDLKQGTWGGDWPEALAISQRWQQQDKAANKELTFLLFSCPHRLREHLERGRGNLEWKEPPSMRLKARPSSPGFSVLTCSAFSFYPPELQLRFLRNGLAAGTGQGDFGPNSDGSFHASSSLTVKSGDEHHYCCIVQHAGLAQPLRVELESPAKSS
T1 sequence (P61769 21-119 limits assumed, chain 2 of 2): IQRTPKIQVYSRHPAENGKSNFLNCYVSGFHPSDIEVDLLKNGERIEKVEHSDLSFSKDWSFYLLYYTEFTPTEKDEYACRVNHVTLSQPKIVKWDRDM
Assay: SPR Biacore T200; IgG amine-coupled on CM5, hFcRn as analyte; response normalized to parental (=100)
Procedure: (§1) Kinetics and binding capacity were measured on a BIAcore® T200 instrument (GE Healthcare, Glattbrugg, Switzerland) at room temperature, with proteins diluted in running buffer 10 mM NaP, 150 mM NaCl, 0.05% Tween 20, pH7.6. A CM5 sensor chip (Sensor Chip SA, GE Healthcare Life Sciences) was used to immobilized engineered immunoglobulins by amine coupling. Then, recombinant human hFcγR1a, or recombinant human hFcγR3a (F158V), or recombinant human hFcRn, or hC1q was used as the analyte.
(§2) Binding data were acquired by subsequent injection of analyte dilution series on the reference and measuring flow cells. Zero concentration samples (running buffer only) were included to allow double referencing during data evaluation. For data evaluation, doubled referenced sensorgrams were analyzed and the maximum response reached during the experiment was monitored. Maximum response describes the binding capacity of the surface in terms of the response at saturation. Finally, measured maximum responses were normalized to the one measured using parental immunoglobulin (not engineered).

| Binder | Maximum response at 1840 nM hFcRn (RU) |
| --- | --- |
| B1 | 100 |
| B2 | 340 |
| B3 | 136 |
| B4 | 80 |
| B5 | 604 |
| B6 | 122 |
| B7 | 696 |
| B8 | 126 |
| B9 | 280 |
| B10 | 92 |
| B11 | 230 |

Biological target: T2, hC1q (human, UniProt P02745 23-245; P02746 28-253; P02747 29-245)
T2 sequence (P02745 23-245 limits assumed, chain 1 of 3): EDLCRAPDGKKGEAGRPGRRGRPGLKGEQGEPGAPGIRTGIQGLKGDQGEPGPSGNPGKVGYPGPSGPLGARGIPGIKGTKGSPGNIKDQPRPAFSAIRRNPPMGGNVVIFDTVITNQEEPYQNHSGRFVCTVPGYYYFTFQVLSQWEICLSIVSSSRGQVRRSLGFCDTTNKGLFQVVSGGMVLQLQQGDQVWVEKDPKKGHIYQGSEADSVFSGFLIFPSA
T2 sequence (P02746 28-253 limits assumed, chain 2 of 3): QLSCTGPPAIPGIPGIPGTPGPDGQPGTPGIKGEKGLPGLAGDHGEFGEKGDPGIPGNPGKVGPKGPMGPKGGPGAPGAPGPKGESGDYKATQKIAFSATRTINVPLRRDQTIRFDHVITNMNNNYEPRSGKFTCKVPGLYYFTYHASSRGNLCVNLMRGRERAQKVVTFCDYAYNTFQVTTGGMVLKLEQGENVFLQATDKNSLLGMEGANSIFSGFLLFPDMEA
T2 sequence (P02747 29-245 limits assumed, chain 3 of 3): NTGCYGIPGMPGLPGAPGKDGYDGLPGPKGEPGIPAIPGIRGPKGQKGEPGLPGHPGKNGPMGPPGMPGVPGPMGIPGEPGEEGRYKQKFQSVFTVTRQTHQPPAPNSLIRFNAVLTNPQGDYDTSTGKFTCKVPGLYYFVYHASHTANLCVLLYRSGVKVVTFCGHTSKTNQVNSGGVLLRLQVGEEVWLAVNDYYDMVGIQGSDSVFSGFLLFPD
Assay: SPR Biacore T200; IgG amine-coupled on CM5, hC1q as analyte; response normalized to parental (=100)
Procedure: as §1, §2

| Binder | Maximum response at 20 nM hC1q (RU) |
| --- | --- |
| B1 | 100 |
| B3 | 33 |
| B4 | 2 |
| B6 | 10 |
| B7 | 4 |
| B8 | 3 |
| B11 | 1 |
| B12 | 1 |
| B13 | 5 |

Biological target: T3, hCD3epsilon-FC antigen (human, UniProt P07766 23-126)
T3 construct: immobilized by amine coupling on CM5; also called human CD3epsilon
T3 sequence (P07766 23-126 limits assumed): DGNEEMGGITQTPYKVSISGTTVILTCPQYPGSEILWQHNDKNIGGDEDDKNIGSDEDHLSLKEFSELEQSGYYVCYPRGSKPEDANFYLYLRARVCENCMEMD
Assay: SPR Biacore T200; hCD3epsilon-FC amine-coupled on CM5, IgG as analyte
Design: unit not given here

| Binder | Maximum response at 125 nM hIgG1 |
| --- | --- |
| B1 | 392 |
| B2 | 371 |
| B14 | 365 |
| B3 | 338 |
| B4 | 367 |
| B12 | 392 |
| B13 | 371 |

Biological target: T4, recombinant human hFcγR1a (human, UniProt P12314 16-288, limits assumed)
T4 construct: recombinant, analyte in SPR; also called FcγRI
T4 sequence (P12314 16-288 limits assumed): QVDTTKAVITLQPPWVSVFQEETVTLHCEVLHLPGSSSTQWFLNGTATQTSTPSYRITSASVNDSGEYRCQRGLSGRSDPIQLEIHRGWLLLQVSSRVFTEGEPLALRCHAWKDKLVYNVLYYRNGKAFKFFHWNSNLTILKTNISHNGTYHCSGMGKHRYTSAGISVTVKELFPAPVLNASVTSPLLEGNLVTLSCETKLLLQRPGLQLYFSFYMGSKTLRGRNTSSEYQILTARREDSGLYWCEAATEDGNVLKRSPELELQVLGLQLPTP
Assay: SPR Biacore T200; IgG amine-coupled on CM5, receptor as analyte; response normalized to parental (=100);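 also: measured at room temperature in pH 7.6 phosphate buffer with Tween 20, double-referenced sensorgrams, maximum response taken as binding capacity at saturation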
Procedure: as §1, §2

| Binder | Maximum response at 100 nM hFcγR1a (RU) |
| --- | --- |
| B1 | 100 |
| B2 | 3 |
| B14 | 7 |
| B3 | 13 |
| B4 | 21 |
| B5 | 2 |
| B6 | 2 |
| B7 | 2 |
| B8 | 18 |
| B10 | 19 |
| B11 | 12 |
| B12 | 6 |
| B13 | 2 |

Biological target: T5, recombinant human hFcγR3a (F158V) (human, UniProt P08637 17-208)
T5 construct: also called FcγRIII
T5 sequence (P08637 17-208 F176V): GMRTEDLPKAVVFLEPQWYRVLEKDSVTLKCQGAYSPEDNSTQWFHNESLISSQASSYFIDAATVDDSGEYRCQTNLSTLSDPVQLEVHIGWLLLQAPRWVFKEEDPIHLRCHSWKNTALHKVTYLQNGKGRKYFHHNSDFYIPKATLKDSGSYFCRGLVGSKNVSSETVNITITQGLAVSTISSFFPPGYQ
Assay: as above
Procedure: as §1, §2

| Binder | Maximum response at 300 nM hFcγR3a F158V (RU) |
| --- | --- |
| B1 | 100 |
| B14 | 22 |
| B3 | 17 |
| B4 | 5 |
| B12 | 10 |
| B13 | 10 |

Biological target: T2, hC1q
Assay: SPR max response, normalized to parental (=100)
Procedure: as §1, §2

| Binder | binding result |
| --- | --- |
| B14 | no binding (tested: 20 nM hC1q) |
| B5 | no binding (tested: 20 nM hC1q) |
| B9 | no binding (tested: 20 nM hC1q) |
| B10 | no binding (tested: 20 nM hC1q) |

Biological target: T5, recombinant human hFcγR3a (F158V)
Assay: SPR max response, normalized to parental (=100)
Procedure: as §1, §2

| Binder | binding result |
| --- | --- |
| B2 | no binding (tested: 300 nM hFcγR3a F158V) |

Biological target: T3, hCD3epsilon-FC antigen
Assay: SPR Biacore T200; hCD3epsilon-FC amine-coupled on CM5, IgG as analyte; 1:1 model, apparent KD (bivalent analyte)
Procedure: A CM5 sensor chip (Sensor Chip SA, GE Healthcare Life Sciences) was used to immobilize hCD3epsilon-FC antigen by amine coupling. Then, engineered anti-CD3 hIgG1 were used as the analyte.
Binding data were acquired by subsequent injection of analyte dilution series on the reference and measuring flow cells. Zero concentration samples (running buffer only) were included to allow double referencing during data evaluation. For data evaluation, doubled referenced sensorgrams were analyzed by applying a 1:1 binding model analysis to generate the equilibrium dissociation constant (KD). Binding constant described Table 7 are considered as apparent KD since immunoglobulins used as analyte are bivalent for the immobilized antigen. In addition, maximum response reached during the experiment was monitored. Maximum response describes the binding capacity of the surface in terms of the response at saturation. Finally, measured maximum responses were normalized to the one measured using parental immunoglobulin (not engineered).

| Binder | Kd [nM] |
| --- | --- |
| B1 | 2.32 |
| B2 | 2.3 |
| B14 | 3.76 |
| B3 | 2.38 |
| B4 | 2.27 |
| B12 | 3.27 |
| B13 | 2.06 |
